These results are taken from the DeepSol protein solubility set.

A short description of this data set: soluble on expression in E. coli; label from the status in PepcDB or PDB records.
As to “MTLQQEIIQALGAKPHINPEEEIRRSVDFLKAYLKTYPFLKSLVLGISGGQDSTLAGKLSQMAIAELREETGDNALQFIAVRLPYGVQADEQDCQDAIAFIQPDRVLTVNIKGAVLASEQALREAGIELSDFVRGNEKARERMKAQYSIAGMTHGVVVGTDHAAEAITGFFTKYGDGGTDINPLHRLNKRQGKQLLAALGCPEHLYKKVPTADLEDDRPSLPDEAALGVTYDNIDDYLEGKTLDPAIAKTIEGWYVKTEHKRRLPITVFDDFWKR”, the “soluble on expression in E. coli” value was “soluble”. The value for “MGSDKIHHHHHHMTTVYSGLISCYNAYPKKHSYRVRRSDKGWHDGAVWYLEKAKIMLRNDNLKIKGLTPEQEENVRAIHAMNPAHILVECATNKSWGGKKELSDLDLDSYKKAADTLYEEGFGLCIRYNRQTSIKEFIQQIVDHIGAAQYDNVETGKQTIKLIRRDYKPEDLPVFNYDNGILSVRDDDSGATDKQPNQVIVKYREPVSNRDDQAIANNIASVRMHGVISKTVEYKGVPTFDLAARLARDLELVASGLTRLKIVFDMRASELKPGDVVRVNLPDRDIVDVVFRVGKLENGNDGEIIATCIQDVFGLPAANYSTQKGESLYIPPDYTANPIQQARLIEVPYHVLPLVLSDAERAFVKPTDCFVWALGAQPTALSVGYDMLVDVGGGYTQTATGSFTPFVRLLEPVSPYQTNIKIKLEGDYAAVAGALALIVDDEIIKIDAVDFKTGTMTVGRGCADTVPQAHKADAVAWCYLLAAGTDESKYTVNERLNVKLLTRTAQQTLDESKAEVLTLTTQQRQARPFCVELGVPRPRRTSGQTDSALGRQHAPRRWRQL” was “not soluble”; that for “MGSDKIHHHHHHMVREPASTLLPPTSPATPAPHRLLIGRRGMVPTGANVIWKIQSGLVRSSTWGEEGDMISLGLWGPGDLIGRPLSCLDPYELECLTAVEVVAVSDPALESHESLVRSLRYTERLLSITRLRRAEAKLASLLGWIGERFGQPGATGWEIDLRRIPLTHQVIAELSGSTRVTTTRLLGEFRQAGRIHRRDRALIVRYPETLYPPARLSA” was “not soluble”. Take “MAHHHHHHMCVSVCACARPCSLLISLFEKRQHGWGCCNSFTFEHVCSADAVRCLFFFVCDSPSSSLPPSLFTRHSPLLFSSCPFACPSSVHPQRQDNTRRRAEQPCAQALWIRRGINRIGNLLVPNDNYCWFEDFFTPVLESVQEAQRASRWKTHTAPSEFIEAMGAAIAKNHPDTCTSSLVYWCYRNGISVFSPAFTDGSMGDMIYFYNFSHKGLVVDPLEDVVRLRKLAAKEKGRNLAIVLGGGLPKHHLLRNVSMDAVVMVTTGLEADGCVSSGVLADDVACGLLREETETVRVQGDATVVFPLMLIAEKAATLEGAAA”: the “soluble on expression in E. coli” value is “not soluble”.

In the case of “MEYSRDSAEMMMETKRNVYSLEDNKIKRHKSSDLSFSSKERKDKLAERISALQQLVSPYGKTDTASVLLEGMQYIQFLQEQVKVLSAPYLQATPSTTEEEVEEYSLRSKGLCLVPLEYTSEVAQTNGADIWAPVKTPTSSHAFNLSSSNSPFQ”, the “soluble on expression in E. coli” value is “not soluble”. The value for “MGSDKIHHHHHHMKEYIMSFFNAPVTNKIPTCICSVAGLHTYISTNPQLEELTRKVRAGLGDKQVFRKNKQTLLPYVTPAGIFSYCKEQCMQVPSGLFVIDIDELASTEEAAMWRDRLFADEVLHPVLSFVSPGNQGVKLFIPYRINPFLSVEESFDNALHTAWEYLEWKYELKVDRANADLSRACFLSHDGEAKINNHKY” was “not soluble”; that for “MGSDKIHHHHHHMNERRLLLTGGWILSMDPAVGDLRQGDILIEGDRIAAVAPRIEAPEAQRIDAAGMIVLPGFVDTHRHTWQSCVRHRYADIDPQIYFAEMLGATGAAFRPDDVYIGTLLGAVSALDSGITTMLDWSHVQNSPEHADAAVLGLRDAGIRGIFAHGWPLVEGASWMFDSQRGHPEDIRRLRERYFSSDDQLLTLAMAARGPEMACREVWLRDLRLARELGIRSSIHMGAYARNGTARGIAQMHEAGVLGDDLTFVHCCCSGEDEIAMMADAGVSASLGVHCELNAQGIGDLPLDRMLAVGIRPSLSGDTETKCSGDMFTQMRHAFAYYRSWMGGNHSRVANAPATLSMRDVLEFATVAGARANGLDHKVGSLTPGKQADIVMIRGDDLNLAPVSDAVGAVVLAAHPGNVDTVFVAGRTVKRHGRMTGVDVDMLRHRAAASQHYVLGLR” was “not soluble”; that for “MRYTVALTGGIGSGKSTVADAFADLGITVIDADIIARQMVEPGQPALNAIAEHFGSELIAADGTLRRRALRERIFSHPEEKAWLNALLHPLIQQETQRQFQQATSPYVLWVVPLLVENRLYQKANRVLVVDVTPETQLIRTMQRDDVTREHVEHILAAQATREARLAVADDVIDNNGAPDAIASDVARLHASYLKLASQFVSQEKP” was “not soluble”. The value for “MKLIWSPETASKAYIDTVKSCENLGTPGAAELVAAMAAGWNANLIVETWSEGETIAISVGLNIASRHTNGRHICIVPNARSQTAYLQAMAEQSCSNLPETIIMNEEGEELEHTMQTLQGIDFLVVDWDQKDFAANVLRNAVFGSRGAVVVCRSGYRRSTSCFSWTKAFSDRNVVRTVTLPVSGGLEIAHVAAARSSGKSDNNSNKRKWIKHFDQRSGEEHVIRK” was “soluble”; that for “MSTIAKDQTQINDKIRAKELRLIGQDGEQIGVKSKREALEMAERVDLDLVVVAPNAKPPVARIMDYGKFKFEQQKKEKEMKKKQKIINVKEIRLSPTIEEHDFQTKLKNGRKFLTKGDKCKVSIRFRGRAITHKEIGQRVLEKYADECKDIATVEQKPKMDGRQMFIMLAPTAEK” was “not soluble”; that for “MSLMYKVLLVDDEYMILQGLTMIIDWQALGFEVVQTARSGKEALTYLTQYPVDVMISDVTMPGMTGLDLIEAAKTYHPQLQTLILSGYQEFSYVQKAMELETKGYLLKPVDKAELQAKMKQFKDCLDAQQAESIRQEAYHDSLLTLWLTDELSEKEFQQLSQGLPAAALIGFTVLYLDCQEWQAAIDAYFEQEGQPFYLKKEEDKKVYLAVLLGKTDQAKAFTYDLQKRFSRNMHQLILGETVDDWENVYESYNQVLKSLFYNCEVSPIRAKDKSKIELPESRLQFFAFNKALMIGDEPTILSKLEAIFDEMKTLNFSPEDVKHVSFLLFSDIYRQFPILDKMTYLSMVKTIHDSQSIDRILRELKKVLDVTNQNNSPEKRYSDLVSETIDCIRKEYHQELTLKAIADRLHVNGVYLGQCFKNETERSFTQYLNHVRIQKAQQLLLYTNQSINEIAYETGYNTNHYFIKMFKKLNGLSPKEFRDRYKDNYQAEGHHHHHH” was “soluble”. In the case of “MSLTASAPRRPAAFLDRDGVINYNDHYVGTRERLRWMPGIAAAIRQLNAAGYYVFIITNQSGVARGMFSEDDVRALHRWMLDELNTQGARIDDVRFCPHHVEGTLDAYRVACEHRKPGPGMILDLAKTWPVDMTRSFVIGDSASDVEAAKAAGIPGFRFEGEDIDVFVKQVLIEMQRAAVSNEGHHHHHH”, the “soluble on expression in E. coli” value is on record as “soluble”. Consider “MPRPALRSRSLRRVYVKLPSGKTVIHYERKRNDIAICAICKKPLHGVKTNFLHKYSKSEKRPERPFGGYLCSSCLTQLIKATVRQQLQ”, for which the “soluble on expression in E. coli” value is recorded as “soluble”. Next, “MAHHHHHHMNILHKIFTPGSKSKKTLLHCDAELGDRQSHSSSKVSTAVQVKSKLTAASSDDDDCGPLMRSVSMTVVSDPVPSSFKTNSSFANQSRPTQGPASFKSARLANSFSNASCHLERHHQHTAALASSVSRHNQRSLFDKIHSSGSFAVGETTVSGGSFTANGGTVNLWRLPWTQQKVTMCPNCHRPRQRDRTMQVSRASYTLQETTIENGMGDDMSEANEDMSYSDSEGMGGPMSDSVTCRCGVVSEGDAPLDYDDSAEATEEHPKLFVVETQNPSAVQLPGTIAEASDSEGEGREDVRRSYKLSLVSSPTPTSLRRRAPRVQPLLSGASPQTNTASVPKRVTHWLHEQQTSEARVVLKPKAAR”: “not soluble”; “SAEHVLTMLNEHEVKFVDLRFTDTKGKEQHVTIPAHQVNAEFFEEGKMFDGSSIGGWKGINESDMVLMPDASTAVIDPFFADSTLIIRCDILEPGTLQGYDRDPRSIAKRAEDYLRATGIADTVLFGPEPEFFLFDDIRFGASISGSHVAIDDIEGAWNSSTKYEGGNKGHRPGVKGGYFPVPPVDSAQDIRSEMCLVMEQMGLVVEAHHHEVATAGQNEVATRFNTMTKKADEIQIYKYVVHNVAHRFGKTATFMPKPMFGDNGSGMHCHMSLAKNGTNLFSGDKYAGLSEQALYYIGGVIKHAKAINALANPTTNSYKRLVPGYEAPVMLAYSARNRSASIRIPVVASPKARRIEVRFPDPAANPYLCFAALLMAGLDGIKNKIHPGEPMDKNLYDLPPEEAKEIPQVAGSLEEALNALDLDREFLKAGGVFTDEAIDAYIALRREEDDRVRMTPHPVEFELYYSV”: “soluble”. As for “MSLRGLSTDHTTQIVNLEDNTQDLLLLLSLFKKITNVNPSKNFNVILASSLNEVGTLKVILNLYSSAHLIRINDEPILGQITLTFISELCSIEPIAAKLINSGLYSVLLESPLSVAIQQGDIKPEFSPRLHNIWSNGLLSIVLLLLSQFGIKVLPETCLFVSYFGKQIKSTIYNWGDNKLAVSSSLIKETNQLVLLQKMLNLLNYQELFIQPKNSDDQQEAVELVIGLDSEHDKKRLSAALSKFLTHPKYLNSRIIPTTLEEQQQLEDESSRLEFVKGISRDIKALQDSLFEGHHHHHH”, the “soluble on expression in E. coli” value is reported as “not soluble”. Next, “MAFAGLTDLRLFDNVSHYINELAGEFSPDTAHLHDHNCKCSIVDRLWCDYFGMGTCISREARARRKERKRNIKRLREARNASASPRDPFSNGHRYGHRSRSEGGNGDVRDDIKELIIETLEVIRTLVNNEQEPPQSLLKLNFIADEEKGWTMVVRALIYTIPENDPLGPAVISLFLDECPLPSRESVQTLLLSLGLSSEFVDSKHLPPSWHKNMCIVLGSLAEKMAGSAAVTMFNDKIKGYLMKIICYGLTYFPPNYGKTLKEKNTHCVRMFALLALEKFAQTRENQISICKMFTEMTTHPLIKMEEYLKNEEVSRYWFAKQEGFCAQWALDNIFILESRPYSYETCETSKINAMLNHEDVSEYLKIGPDGLEARCDVSSFESVRCTFEVMDGVWYYEATVLTSGVMQIGLATKRSRFLNHEGYGIGDDASSVAYDGCRQLVWYNAKSHKHEHENWQPGDVIGVLLNIPEGEVVFYLNGTPLKEPETEFLSNRQPSEGVFAAASFMSFQQCRFNFGASRFKYNPGKKFRCFNDFGKLSTEQRTIVPRRLRLELLEKEHIPEDYCTICFAAPGSTTLLPCNHDGFCSDCCNMMDHCPLCRKPIEERIQKTKNNRSFDNVKSPSNSSISAFVRVNSQRKSTRATSAVATHPTDTVIHTGITTANNRDIARRHTQV”: “not soluble”. Regarding “MEYKDATHTTATQTVHYVNQDGDKVFDDDTSQTLNYERGVTIDEVTGEVISYGDWTPVDGDEFGSVTSPDKPGYAVDTKVVSGEKPEITNGKDGKVNDVEVTVTYTASNEDATLEHHHHHH”, the “soluble on expression in E. coli” value is “soluble”. As for “MSLASSLHVLLEKIIKIGDLTVNSPGGSRTFGDGTGKKVVLNFTDEAAMQEIAADPALKLAEMYMEGRAKVAKGDIYDFLALVKGNTLSEALSFGMIWRGMARIIAARIKMRLPVNHNKSNVAHHYDLSAKLFDLFLDEDWQYSCAYFNPPDIGLYEAQVAKKRHIAAKLMTEPGQSVLEIGSGWGGMAMYIAESAGADVTGITLSEEQLRVSRDRAAKRGLAGNVRFELQDYRYLPASKKYDRIVSVGMFEHVGPTHYRDYFDKVAEVLDDKGVMVLHSIGQPYPALATNPFIEKYIFPGGYIPSLAEVLPAIQKSGLLVKDIEILPMHYAHTLRHWRERFVARKAEAVALYDERFFRMWEFYLAGSEMAFTHENFHIFQIQLAKDRDAVPHNRDYIAQNEAKLLEFEKTRPPLEKVSEGHHHHHH”, the “soluble on expression in E. coli” value is given as “soluble”. In the case of “MFRAMSTRKIHGGYEKLGDEEARLKRVSSVPASVYGHSRNPVQEVKKTPTAKPTGGSVHPLFSFFDVHFQRKKKNTAKKKSLATAKPEFARYMEYVREGGVWDPSSNAPVIHYR”, the “soluble on expression in E. coli” value is “not soluble”.
